From PMC6987245

Columns and labels:
[1] = biological target: TAMRA-labeled UBXN1 UBA(ext1-52) domain (UniProt Q04323); assay: MST; TAMRA-UBA peptide in FP binding buffer, K6 diUb 1.53 to 50 μM, 30 min incubation, hydrophobic capillaries, Monolith NT.115, 30% LED and 40% IR-laser power
[2] = biological target: TAMRA-labeled UBXN1 UBA(ext1-52) domain (UniProt Q04323); assay: fluorescence polarisation; 5 nM TAMRA-labeled UBA peptide fixed, diubiquitin 0.78 to 25 μM in six steps, triplicate; overnight incubation at 4°C, read at room temperature; 20 mM Tris pH 7.6, 150 mM NaCl, 0.5 mg/ml BGG, 1% TX-100; one site binding (hyperbola) fit

UniProt Q04323, sequence (Q04323 1-52): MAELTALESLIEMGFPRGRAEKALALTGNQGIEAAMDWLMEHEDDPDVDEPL

Substance: K6-linked diubiquitin (native, unlabeled) (from UniProt P0CG48 1-76; P0CG48 1-76)
- Kd [1]: 1.05 µM
- Kd [2]: 1.43 µM
